Among the data in article PMC6373949, “Expression optimization, purification, and functional characterization of cholesterol oxidase from Chromobacterium sp. DS1” (PLoS ONE, 2019) are Km values, retold here.

Substrate in this series: CC(C)CCC[C@@H](C)[C@H]1CC[C@H]2[C@@H]3CC=C4C[C@@H](O)CC[C@]4(C)[C@H]3CC[C@]12C
Nature of the series: purified protein. Format: biochemical, Chromobacterium sp. DS-1. Conditions: 0.1 M potassium phosphate pH 7, 25°C, cholesterol 0-1 mM.

B1: cholesterol oxidase from Chromobacterium sp. DS1 (ChO) (Chromobacterium sp. DS-1) (protein)
chain: GRLTCSQPNNFPAEIPLYKQSFKNWAGDIKVDDVWTCAPRSADEVVKVANWAKDNGYKVRARGMMHNWSPLTLAAGVSCPAVVLLDTTRYLTAMSIDASGPVAKVTAQAGITMEALLTGLEKAGLGVTAAPAPGDLTLGGVLAINGHGTAIPAKGERRLAGASYGSISNLVLSLTAVVYDKASGAYALRKFARNDPQIAPLLAHVGRSLIVEATLQAAPNQRLRCQSWFNIPYGEMFAAAGSGGRTFASYLDSAGRVEAIWFPFTSNPWLKVWTVTPNKPLFSRQTDKPFNYPFSDNLPDEVTDLANKILSLGDGKLTPAFGKAQFAAASAGLVATASWDLWGWSKNLLLYVKPTTLRVTANGYAVLTRRENVQRVLNEFVTFYQARVQAYQQQGRYPMNGPVEIRVTGLDDPSEAALSGGVAPALSAIRPRPDHPEWNVAVWLDILTLPGTPYANQFYREIEQWIEANFNGSYAAVRPEWSKGWGYTDQAAWADSAMLQTTIPNAFRAGQPAAANWDAAKAALAAYDPYRLFSSPLLDSLGL
notes: synthetic gene in pET24b(+) NdeI-BamHI; 6xHis tag (N-terminal), no tag removal told; E. coli Rosetta-gami2(DE3); native enzyme 58 kDa
As a reminder, the Km is the concentration of substrate that gives half-maximal velocity. In the case of B1, the Km came to 31 µM.
